Source: US20200147231A1 (NATIONAL CANCER CENTER JAPAN, published 2020)

T1: insoluble fibrin (fibrinogen from human plasma, immobilised on a plate and treated with thrombin) (human, UniProt P02671 36-629; P02679 27-437)
T1 construct: Plasma-derived material; also called fibrin plate; insoluble fibrin plate
T1 sequence 1: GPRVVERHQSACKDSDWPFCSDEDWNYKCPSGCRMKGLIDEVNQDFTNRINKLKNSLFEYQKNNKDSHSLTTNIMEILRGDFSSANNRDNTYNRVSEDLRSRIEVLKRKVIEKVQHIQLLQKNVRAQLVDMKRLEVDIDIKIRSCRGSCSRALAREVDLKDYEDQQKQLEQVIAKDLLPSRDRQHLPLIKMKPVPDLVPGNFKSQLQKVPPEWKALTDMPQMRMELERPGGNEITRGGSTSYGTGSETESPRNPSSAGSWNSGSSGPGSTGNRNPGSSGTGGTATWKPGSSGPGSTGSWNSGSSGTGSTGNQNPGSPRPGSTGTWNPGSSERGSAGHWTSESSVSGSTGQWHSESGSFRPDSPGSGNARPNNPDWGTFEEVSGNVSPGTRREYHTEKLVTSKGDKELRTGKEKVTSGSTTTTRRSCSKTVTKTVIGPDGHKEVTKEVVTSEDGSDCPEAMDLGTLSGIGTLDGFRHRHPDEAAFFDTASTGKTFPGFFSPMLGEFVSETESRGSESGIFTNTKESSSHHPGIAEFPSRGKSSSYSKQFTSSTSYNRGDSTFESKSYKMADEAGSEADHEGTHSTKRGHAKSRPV
T1 sequence 2: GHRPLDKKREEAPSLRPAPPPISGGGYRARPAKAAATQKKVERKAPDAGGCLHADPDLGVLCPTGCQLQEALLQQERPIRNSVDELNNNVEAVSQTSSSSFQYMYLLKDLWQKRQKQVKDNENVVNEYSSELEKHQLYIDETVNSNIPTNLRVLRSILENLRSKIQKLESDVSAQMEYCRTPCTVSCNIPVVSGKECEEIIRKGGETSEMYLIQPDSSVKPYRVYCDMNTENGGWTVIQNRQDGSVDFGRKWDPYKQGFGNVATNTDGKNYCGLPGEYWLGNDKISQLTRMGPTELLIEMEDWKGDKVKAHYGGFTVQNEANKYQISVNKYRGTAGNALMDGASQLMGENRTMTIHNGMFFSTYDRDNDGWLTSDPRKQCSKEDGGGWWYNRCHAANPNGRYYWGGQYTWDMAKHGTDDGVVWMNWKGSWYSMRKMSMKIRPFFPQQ
T1 sequence 3: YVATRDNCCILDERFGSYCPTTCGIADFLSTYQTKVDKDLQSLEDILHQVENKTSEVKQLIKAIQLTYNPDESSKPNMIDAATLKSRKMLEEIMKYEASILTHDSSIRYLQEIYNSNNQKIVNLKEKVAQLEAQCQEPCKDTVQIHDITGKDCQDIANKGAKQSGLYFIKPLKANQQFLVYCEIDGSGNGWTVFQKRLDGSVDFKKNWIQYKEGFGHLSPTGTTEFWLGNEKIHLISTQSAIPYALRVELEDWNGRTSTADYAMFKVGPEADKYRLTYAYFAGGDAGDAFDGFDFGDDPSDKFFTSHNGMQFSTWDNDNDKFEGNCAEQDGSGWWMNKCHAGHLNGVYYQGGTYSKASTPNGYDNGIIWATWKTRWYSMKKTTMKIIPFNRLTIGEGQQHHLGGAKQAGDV

B1: antibody obtained from clone 1101 (antibody, V domains shown)
VH: EVQLQQSGTVLARPGASVKMSCKASGFSFTSYWMHWVKQRPGQGLEWIGAIYPGNSDTRNNQKFKGKAKLTAVTSANTAYMELSSLTNEDSAVYYCTRKAHYGNYGFAYWGQGTLVTVSAA
VL: DIQMTQSSSYLSVSLGGRVTITCKASDHINNWLAWYQQKPGNAPRLLISGATSLETGVPSRFSGSGSGKDYTLSITSLQTEDVATYYCQQYWSTPLTFGAGTKLELKRADAAP
B2: antibody obtained from clone 99-5 (antibody, V domains shown)
VH: QIQLVQSGPELKKPGETVKISCKASGYTFTNYGMNWVKQAPGKGLKWMGWINTKIGEPTYAEEFKGRFAFSLETSASTAYLQINNLKNEDTATYFCARLLDYWGQGTTLTVSS
VL: DIVLTQSPASLAVSLGQRATISCRASESVDSYGNSFMHWYQQKPGQPPKLLIYRASNLESGIPARFSGSGSRTDFTLTINPVEADDVATYYCQQSNEDPRTFGGGTKLEIKR
notes: also called antibody 99
B3: antibody obtained from clone 1101 (antibody, V domains shown)
VH: EVQLQQSGTVLARPGASVKMSCKASGFSFTSYWMHWVKQRPGQGLEWIGAIYPGNSDTRNNQKFKGKAKLTAVTSANTAYMELSSLTNEDSAVYYCTRKAHYGNYGFAYWGQGTLVTVSA
VL: DIQMTQSSSYLSVSLGGRVTITCKASDHINNWLAWYQQKPGNAPRLLISGATSLETGVPSRFSGSGSGKDYTLSITSLQTEDVATYYCQQYWSTPLTFGAGTKLELKR
notes: also called antibody 1101
B4: antibody obtained from clone 99-5 (antibody, V domains shown)
VH: QIQLVQSGPELKKPGETVKISCKASGYTFTNYGMNWVKQAPGKGLKWMGWINTKIGEPTYAEEFKGRFAFSLETSASTAYLQINNLKNEDTATYFCARLLDYWGQGTTLTVSSAKTTPPSV
VL: GDIVLTQSPASLAVSLGQRATISCRASESVDSYGNSFMHWYQQKPGQPPKLLIYRASNLESGIPARFSGSGSRTDFTLTINPVEADDVATYYCQQSNEDPRTFGGGTKLEIKRADAAPTVS

How the values were obtained:
[1] = target: peptide of the epitope site of 102-10; assay: SPR (Biacore T200), peptide immobilised on CM5, antibody as analyte, multi cycle kinetics
[2] = target: T1, insoluble fibrin (fibrinogen from human …); assay: ELISA on the human fibrin plate (coated fibrinogen treated with thrombin), HRP secondary antibody, absorbance at 450 nm
Procedure: In advance of the ELISA, an antigen-immobilized plate was prepared. Fibrinogen from human plasma (SIGMA) was dissolved in TBS (pH 8.5) to produce a 20 μg/mL fibrinogen solution. The solution was added to a 96-well immunoplate at 50 μL/well and was left to stand at 4° C. overnight to prepare a fibrinogen plate. Thrombin diluted to 0.05 NIH U/mL with a thrombin diluent [7 mM L-cysteine (FUJIFILM Wako Pure Chemical Corporation), 1 mM CaCl₂ (FUJIFILM Wako Pure Chemical Corporation), TBS (pH 8.5)] was added to the fibrinogen plate at 100 μL/well and was incubated at 37° C. for 2 hours to prepare a fibrin plate. The plate on which each antigen was immobilized was washed with 200 μL of PBS-T (PBS, 0.5% (v/v) Tween 20) three times, and 200 μL of a blocking solution [PBS-T, 1% (w/v) BSA] were added to each well, followed by being left to stand at room temperature for 1 hour for blocking. The samples serially diluted with PBS were added to the plate at 50 μL/well and were left to stand at room temperature for 1 hour. The solutions were discarded, and the plate was washed with PBS-T three times. A secondary antibody diluted to 0.3 μg/mL with the blocking solution was added to the plate at 50 μL/well, followed by being left to stand at room temperature for 30 minutes. […]

Row | Binder | Kd [1] [nM] | koff [1] [s⁻¹] | kon [1] [M⁻¹ s⁻¹] | binding result [2]
1 | B1 | 66.8 | 0.00325 | 93700 | 
2 | B2 |  |  |  | binds
3 | B3 |  |  |  | binds
4 | B4 | 32.6 | 0.000585 | 18000 | 
